Experiment [1] addresses T1, CePRMT5 (Caenorhabditis elegans, UniProt P46580).
T1 construct: made in house
T1 sequence (P46580 1-734): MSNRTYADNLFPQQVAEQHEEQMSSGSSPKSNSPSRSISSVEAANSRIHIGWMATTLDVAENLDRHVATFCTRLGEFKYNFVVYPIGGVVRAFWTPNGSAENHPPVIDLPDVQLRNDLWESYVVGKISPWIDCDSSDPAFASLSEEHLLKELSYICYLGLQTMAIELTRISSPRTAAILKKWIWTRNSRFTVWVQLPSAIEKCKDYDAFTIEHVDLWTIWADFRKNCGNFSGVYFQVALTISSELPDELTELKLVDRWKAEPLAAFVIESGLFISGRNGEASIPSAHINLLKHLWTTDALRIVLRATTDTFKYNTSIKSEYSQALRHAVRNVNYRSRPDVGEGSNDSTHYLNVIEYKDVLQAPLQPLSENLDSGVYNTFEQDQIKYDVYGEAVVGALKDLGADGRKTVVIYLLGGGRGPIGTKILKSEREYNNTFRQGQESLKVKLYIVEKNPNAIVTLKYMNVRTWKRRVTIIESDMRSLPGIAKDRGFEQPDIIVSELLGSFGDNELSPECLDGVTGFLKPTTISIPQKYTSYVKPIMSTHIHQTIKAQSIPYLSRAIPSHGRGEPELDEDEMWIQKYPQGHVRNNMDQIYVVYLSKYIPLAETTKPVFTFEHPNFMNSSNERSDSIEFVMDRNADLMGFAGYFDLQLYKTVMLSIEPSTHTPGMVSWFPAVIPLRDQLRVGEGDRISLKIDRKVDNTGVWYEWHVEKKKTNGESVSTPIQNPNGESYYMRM
Conditions: lit. (46); cited from earlier work.

Experiment [2] deals with T2, TbPRMT7 (Trypanosoma brucei brucei, UniProt Q582G4).
T2 construct: made in house
Briefly: 1-Step EZ-MTase UV-based coupled assay, TbPRMT7 kinetics (incl. ionic strength). The class given is biochemical. Conditions: pH=7.60, 25 mM phosphate, co-substrate saturating. The protocol: Briefly, the 250-μL reaction mixtures from a same row contained 25 mM phosphate buffer pH=7.60, 1 mM βME, 10% glycerol, 4 μM coupling deaminase TM0936, 1.0 μM TbPRMT7 and various peptide concentrations (16.6-243.3 μM; in the first well, peptide acceptor was omitted to account for background signal—natural decomposition of SAM). Reactions started upon addition of SAM (25.8 μM saturating final concentration) and absorbance was recorded. […] Fit to the Michaelis-Menten model (Eq. 5) provided corresponding kinetic parameters:
Briefly, the measurements consisted of two experimental subsets: MTase reactions (both SAM and peptide added) and MTase blanks (SAM was added without peptide to account for natural SAM decomposition). The 250-μL reaction mixtures from a same row contained 25 mM phosphate buffer pH=7.60, 1 mM βME, 10% glycerol, 4 μM coupling deaminase TM0936, 402 nM TbPRMT7 and various SAM concentrations (1.53-20.0 μM). […] Initial rates were first corrected for background signal, then plotted against SAM concentrations and fitted to the Morrison kinetic model to yield corresponding kinetic parameters.
(§1) Kinetic behavior for 8-aza-SAM against MTases (acceptor sat.)—Briefly, kinetic parameters were determined at 20° C. in a UV-Star 96-well flat bottom plate (Greiner Bio-One, #655801) by continuous monitoring of absorbance at 282 nm using a SpectraMax M5 instrument (Molecular Devices). As for SAM experiments, the measurements consisted of two experimental subsets: MTase reactions (both 8-aza-SAM and acceptor added) and MTase blanks (8-aza-SAM was added without acceptor to account for natural 8-aza-SAM decomposition). The 250-μL (60-μL) reaction mixtures from a same row contained 50 mM phosphate buffer pH=7.60 (7.80), 1 mM βME, 10% glycerol (5% glycerol, 100 μM MgCl2), 4 μM coupling deaminase TM0936, either 1.5 μM CePRMT5 or 402 nM TbPRMT7 (or 610 nM GsSDMT) and various 8-aza-SAM concentrations. […] Initial rates were first corrected for background signal, then plotted against 8-aza-SAM concentrations and fitted to the Michaelis-Menten equation to yield corresponding kinetic parameters. The kinetic data from CePRMT5 were fit to the following Eq. 6 to reflect substrate inhibition observed at higher 8-aza-SAM concentration:
Experiments were conducted following TbPRMT7 protocol above. Briefly, the 250-μL reaction mixtures from a same row contained either 25, 50, 75 or 100 mM phosphate buffer pH=7.60, 1 mM βME, 10% glycerol, 4 μM coupling deaminase TM0936, 1.0 μM TbPRMT7 and various peptide concentrations (16.6-243.3 μM; in the first well, peptide acceptor was omitted to account for background signal—natural decomposition of SAM). Reactions started upon addition of SAM (25.8 μM saturating final concentration) and absorbance was recorded. […] The four fits to the Michaelis-Menten equation (kcat fixed at 29 h^−1) provided corresponding Km values and established impact of ionic strength onto this kinetic parameter.

For experiment [3], the target named is T2, TbPRMT7. In words: Fluorescence-based coupled assay, TbPRMT7 with 8-aza-SAM cofactor. The class given is biochemical. Conditions: 8-aza-SAM 25.0 μM, pH=7.60, fluorescence-mode. The protocol: Briefly, the 250-μL reaction mixtures from a same row contained 25 mM phosphate buffer pH=7.60, 1 mM βME, 10% glycerol, 4 μM coupling deaminase TM0936, 805.2 nM TbPRMT7 and various peptide concentrations (0-144.55 μM. The first well contained only 8-aza-SAM without any coupling enzyme, nor methyltransferase; in the second well, peptide acceptor was omitted to account for background signal—natural decomposition of 8-aza-SAM). […]

The target of experiment [4] is T1, CePRMT5. In words: 1-Step EZ-MTase UV-based coupled assay, CePRMT5 kinetics. Type of experiment: biochemical. Conditions: pH=7.60, co-substrate saturating, 4 μM TM0936; 263 nm (282 nm for 8-aza-SAM). The protocol: The 250-μL reaction mixtures from a same row contained 50 mM phosphate buffer pH=7.60, 1 mM βME, 10% glycerol, 4 μM coupling deaminase TM0936, 300 nM CePRMT5 and various peptide concentrations (5-180 μM; in the first well, peptide acceptor was omitted to account for background signal—natural decomposition of SAM). The methyltransfer reactions started upon addition of SAM (25 μM saturating final concentration) and absorbance was recorded.
The 250-μL reaction mixtures from a same row contained 50 mM phosphate buffer pH=7.60, 1 mM βME, 10% glycerol, 4 μM coupling deaminase TM0936, 300 nM CePRMT5 and various SAM concentrations (2.35-47.0 μM). […] Initial rates were first corrected for background signal, then plotted against SAM concentrations and fitted to the Morrison kinetic model to yield corresponding kinetic parameters.
as §1, with “parameters.” for “parameters. The kinetic data from CePRMT5 were fit to the following Eq. 6 to reflect substrate inhibition observed at higher 8-aza-SAM concentration:”

For the next experiment, the target named is GNMT (Rattus norvegicus, UniProt P13255). Conditions: cited from earlier work.
Another experiment addresses T3, GsSDMT (Galdieria sulphuraria, UniProt M2XPA0).
T3 sequence (M2XPA0 2-297): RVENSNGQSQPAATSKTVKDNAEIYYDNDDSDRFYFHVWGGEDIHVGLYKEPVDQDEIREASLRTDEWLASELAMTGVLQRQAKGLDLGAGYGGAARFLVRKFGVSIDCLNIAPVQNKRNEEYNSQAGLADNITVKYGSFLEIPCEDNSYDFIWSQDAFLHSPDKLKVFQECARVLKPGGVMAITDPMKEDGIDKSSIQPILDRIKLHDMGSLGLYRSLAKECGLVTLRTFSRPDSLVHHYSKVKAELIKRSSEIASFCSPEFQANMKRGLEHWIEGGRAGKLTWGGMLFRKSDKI
Briefly: GsSDMT inhibition by sinefungin (UV-mode). The class given is biochemical. Conditions: pH=6.80, SAM 763 μM, sarcosine 5 mM, 195 nM GsSDMT; read-out: inhibition constant Ki. The protocol:
Briefly, kinetic parameters were determined at 20° C. in a UV-Star 96-well flat bottom plate (Greiner Bio-One, #655801) by continuous monitoring of absorbance at 263 nm using a SpectraMax M5 instrument (Molecular Devices). The 100-μL reaction mixtures from a set of two rows contained 100 mM phosphate buffer pH=6.80, 1 mM βME, 5% glycerol, […] MgCl2, 4 μM coupling deaminase TM0936, 195 nM GsSDMT, saturating level of SAM (763 μM) and various sinefungin concentrations (0.8-244 μM). In the first row, the sarcosine acceptor was omitted to account for background signal (i.e. natural catabolism of sinefungin and SAM decomposition). The methyltransfer reactions started upon addition of sarcosine (5 mM saturating final concentration). Volumes (60-μL) were transferred onto plate and absorbance signals were recorded. The initial rates of the reactions were corrected using data from first row experiments and plotted against sinefungin concentrations. Fit to the following Eq. 7 provided corresponding inhibition constant (Ki):
where V and V0 are the initial velocity with and without inhibitor, respectively. The Michelis constant for SAM substrate is depicted as Km and [SAM] is the concentration of this same molecule. The inhibition constant for sinefungin is represented by Ki and [SIN] is the concentration of this inhibitor. The parameter γ is the Hill coefficient. […]

The target in experiment [5] is T4, NcDIM-5 (Neurospora crassa, UniProt Q8X225).
T4 construct: GST; made in house
T4 sequence (Q8X225 1-331): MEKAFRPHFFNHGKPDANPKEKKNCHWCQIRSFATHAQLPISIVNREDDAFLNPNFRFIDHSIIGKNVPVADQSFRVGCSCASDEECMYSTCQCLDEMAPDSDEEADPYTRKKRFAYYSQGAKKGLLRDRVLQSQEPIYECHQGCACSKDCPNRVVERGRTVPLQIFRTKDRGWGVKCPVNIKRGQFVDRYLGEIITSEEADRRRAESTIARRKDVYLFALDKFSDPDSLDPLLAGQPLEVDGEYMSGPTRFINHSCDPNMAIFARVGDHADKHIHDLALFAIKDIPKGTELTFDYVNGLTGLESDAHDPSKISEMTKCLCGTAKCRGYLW
Conditions: literature values; cited from earlier work.

Experiment [6] has as its target T4, NcDIM-5. In words: Reported (literature) NcDIM-5 kinetics. Type of experiment: biochemical. Conditions: from reported values lit. (53).
The next experiment concerns deaminase PA3170. In words: Deamination of 5DOA by PA3170. The class given is biochemical, Pseudomonas aeruginosa. The text has this: FIG. 3A-3C. The reaction catalyzed by deaminase PA3170 and its use as a coupling enzyme for monitoring radical SAM (RS) enzymes activity. (A) The 5′-deoxy-adenosine (5DOA) by-product of radical SAM enzyme reactions is efficiently converted into its inosyl-derivative (5DOI) by the deaminase PA3170. (B) The […] conversion is confirmed by HPLC as these two molecules have distinct retention times. The different spectral signatures between 5DOA and 5DOI (λmax1=259 nm and λmax2=249 nm, respectively) allow continuous monitoring of […] through UV-detection.

Where two headings read alike, the source gives them in different places.

T2 sequence (Q582G4 whole entry): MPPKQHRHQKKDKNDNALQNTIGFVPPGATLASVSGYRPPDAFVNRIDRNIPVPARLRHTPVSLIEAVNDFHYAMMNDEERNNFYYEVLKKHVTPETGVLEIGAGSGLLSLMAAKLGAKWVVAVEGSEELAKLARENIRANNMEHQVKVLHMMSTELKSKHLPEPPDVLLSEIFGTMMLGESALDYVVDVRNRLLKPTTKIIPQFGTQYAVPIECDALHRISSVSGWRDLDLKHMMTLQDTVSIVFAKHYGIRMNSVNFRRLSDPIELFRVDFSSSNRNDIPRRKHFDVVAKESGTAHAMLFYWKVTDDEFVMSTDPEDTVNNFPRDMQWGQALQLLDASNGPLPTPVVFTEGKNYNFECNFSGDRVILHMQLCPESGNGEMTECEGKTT
GNMT, sequence (P13255 whole entry): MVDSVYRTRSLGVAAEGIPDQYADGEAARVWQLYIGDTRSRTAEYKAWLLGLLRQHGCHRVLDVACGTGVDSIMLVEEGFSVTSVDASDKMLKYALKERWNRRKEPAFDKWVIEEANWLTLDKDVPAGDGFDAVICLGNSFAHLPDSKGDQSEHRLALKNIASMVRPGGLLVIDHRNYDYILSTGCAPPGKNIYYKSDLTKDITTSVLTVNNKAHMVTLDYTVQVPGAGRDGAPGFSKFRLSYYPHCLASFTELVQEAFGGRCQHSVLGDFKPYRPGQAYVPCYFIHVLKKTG

As to “H4(1-20): H4(1-20) peptide substrate for CePRMT and TbPRMT7, purchased from GenScript”, the Km was 54 ± 4 µM in the experiment with CePRMT5 [1], 39 ± 3 µM with TbPRMT7 [2], 71 ± 8 µM in the experiment with TbPRMT7 [3] and 26 ± 2 µM in the experiment with CePRMT5 [4]. Also, the kcat in the experiment with CePRMT5 [1] is 0.00794 ± 0.00019 s⁻¹; with TbPRMT7 [2] it was 0.00783 ± 0.00019 s⁻¹; in the experiment with TbPRMT7 [3], 0.0108 ± 0.00056 s⁻¹; in the experiment with CePRMT5 [4], 0.00914 ± 0.00022 s⁻¹.
As to `NCC(=O)O` [glycine], the Km on GNMT is 130 µM.
Consider `Nc1ncnc2c1ncn2[C@@H]1O[C@H](C[C@@H](N)CC[C@H](N)C(=O)O)[C@@H](O)[C@H]1O` [sinefungin], for which the Ki on GsSDMT is 1800 ± 400 nM.
As to “H3(1-20): H3(1-20) peptide harboring a N-terminal biotinylation, from previous report”, in the experiment with NcDIM-5 [5], the Km is 7.4 µM and the kcat is 0.0383 s⁻¹. In the experiment with NcDIM-5 [6], this compound had an overall catalytic efficiency of 19 µM⁻¹ h⁻¹.
Turning to `C[C@H]1O[C@@H](n2cnc3c(N)ncnc32)[C@H](O)[C@@H]1O` [5DOA, 5′-deoxy-adenosine], the “conversion into 5DOI by PA3170” value with deaminase PA3170 is reported as “full conversion”.

These data come from patent US20230220443A1, “CHARACTERIZATION OF S-ADENOSYL-L-METHIONINE-CONSUMING ENZYMES WITH 1-STEP EZ-MTASE: A UNIVERSAL COUPLED-ASSAY” (ALBERT EINSTEIN COLLEGE OF MEDICINE, priority 2017, published 2023).
